{"source": "patent US20100015126A1", "about": "“Methods of Binding of Cross-Beta Structures By Chaperones” (priority 2006, published 2010)", "molecules": {"B1": {"name": "ovalbumin: native chicken ovalbumin control (protein)", "chain": "GSIGAASMEFCFDVFKELKVHHANENIFYCPIAIMSALAMVYLGAKDSTRTQINKVVRFDKLPGFGDSIEAQCGTSVNVHSSLRDILNQITKPNDVYSFSLASRLYAEERYPILPEYLQCVKELYRGGLEPINFQTAADQARELINSWVESQTNGIIRNVLQPSSVDSQTAMVLVNAIVFKGLWEKAFKDEDTQAMPFRVTEQESKPVQMMYQIGLFRVASMASEKMKILELPFASGTMSMLVLLPDEVSGLEQLESIINFEKLTEWTSSNVMEERKIKVYLPRMKMEEKYNLTSVLMAMGITDVFSSSANLSGISSAESLKISQAVHAAHAEINEAGREVVGSAEAGVDAASVSEEFRADHPFLFCIKHIATNAVLFFGRCVSP"}}, "key": {"human BiP": {"target": "T1, human BiP (Homo sapiens, UniProt P11021)", "T1 construct": "The human BiP gene except the signal peptide encoding region was obtained from Geneart (Germany); linker […]; made in house; host or cells: HEK 293E cells, transient transfection, PABC674 vector; secreted into the medium", "T1 sequence (P11021 19-654)": "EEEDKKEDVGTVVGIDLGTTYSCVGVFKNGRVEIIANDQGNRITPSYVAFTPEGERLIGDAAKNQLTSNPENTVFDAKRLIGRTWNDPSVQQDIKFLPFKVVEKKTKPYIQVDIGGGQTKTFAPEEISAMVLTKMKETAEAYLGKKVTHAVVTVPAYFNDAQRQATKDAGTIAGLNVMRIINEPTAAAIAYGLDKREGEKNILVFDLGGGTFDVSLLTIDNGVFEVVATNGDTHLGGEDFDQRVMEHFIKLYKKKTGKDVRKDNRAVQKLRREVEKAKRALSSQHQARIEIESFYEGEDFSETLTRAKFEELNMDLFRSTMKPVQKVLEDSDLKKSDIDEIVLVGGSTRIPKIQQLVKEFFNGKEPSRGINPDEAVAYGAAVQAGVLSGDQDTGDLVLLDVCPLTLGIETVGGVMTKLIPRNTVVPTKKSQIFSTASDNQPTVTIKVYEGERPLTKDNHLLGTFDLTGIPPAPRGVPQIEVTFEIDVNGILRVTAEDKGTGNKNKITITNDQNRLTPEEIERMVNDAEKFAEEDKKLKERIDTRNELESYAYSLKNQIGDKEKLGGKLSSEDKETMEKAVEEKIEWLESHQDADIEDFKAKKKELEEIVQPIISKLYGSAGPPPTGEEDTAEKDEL", "assay": "ELISA: binding of BiP-FLAG-His to immobilized (misfolded) protein ligands", "conditions": "ligands coated at 5 μg/ml; 6BB peptides and oxLDL 50 μg/ml", "procedure": "Enzyme Linked Immunosorbent Assay for Testing of Chaperone Binding to Misfolded Proteins\nBinding of chaperones to immobilized (misfolded) protein ligands was determined using an enzyme linked immuno sorbent assay (ELISA) approach. For this purpose 50 μl/well of potential ligands at indicated concentrations or coat buffer only for control and background measurement purposes, were coated overnight at 4° C. or coated for 1 h at room temperature, with motion, in 50 mM NaHCO3 pH 9.6 (coat buffer). In general, ligands were coated at 5 μg/ml, unless stated otherwise. For example, BiP binding peptides 6BB# and oxLDL were coated at 50 μg/ml. Native haemoglobin (Sigma-Aldrich, H7379), albumin, IgIV Gammagard and ovalbumin controls were prepared from lyophilized stocks. The controls were prepared by dissolving lyophilized proteins at 1 mg/ml in PBS upon resuspending by pipetting, followed by a 30 minutes period at the roller device, at room temperature. The protein solutions were centrifuged for 10 minutes at 16,000*g and diluted in coat buffer. […] After 5 washes with wash buffer followed by two washes with PBS, binding of antibodies was assessed. […] Plates were read at 450 nm. Triplicates were averaged and standard deviations calculated. […] Subsequently, sub-optimal concentrations of chaperones for binding to misfolded protein ligands are determined, and these concentrations are used for inhibition studies. […]"}, "[1]": {"target": "T2, human mitochondrial HSP60 (Homo sapiens, UniProt P10809)", "T2 construct": "Dr. W. van Eden, Utrecht University; host or cells: E. coli", "T2 sequence (P10809 27-573)": "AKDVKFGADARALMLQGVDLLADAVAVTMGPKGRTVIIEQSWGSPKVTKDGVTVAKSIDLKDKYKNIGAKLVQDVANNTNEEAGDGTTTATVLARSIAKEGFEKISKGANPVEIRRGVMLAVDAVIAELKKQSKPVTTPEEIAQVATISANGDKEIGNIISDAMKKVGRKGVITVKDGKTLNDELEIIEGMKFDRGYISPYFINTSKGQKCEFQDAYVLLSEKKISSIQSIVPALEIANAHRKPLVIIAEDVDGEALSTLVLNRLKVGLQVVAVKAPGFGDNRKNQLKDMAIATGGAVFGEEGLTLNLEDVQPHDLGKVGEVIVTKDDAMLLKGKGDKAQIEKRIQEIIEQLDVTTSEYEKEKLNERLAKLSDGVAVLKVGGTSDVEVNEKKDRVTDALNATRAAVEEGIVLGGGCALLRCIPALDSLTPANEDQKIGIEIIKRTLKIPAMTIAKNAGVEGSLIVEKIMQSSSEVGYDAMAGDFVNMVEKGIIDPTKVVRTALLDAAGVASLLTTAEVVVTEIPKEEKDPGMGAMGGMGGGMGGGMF", "assay": "ELISA: binding of HSP60 to immobilized (misfolded) protein ligands", "procedure": "Recombinant human HSP60 with N-terminal His-tag was a kind gift of Dr. R. van der Zee and Prof. Dr. W. van Eden (Institute of Infectious Diseases and Immunology, Faculty of Veterinary Medicine, Utrecht University, Utrecht, The Netherlands), and was supplied in lyophilized form. The HSP60 was produced in E. coli and purified using Nickel-Sepharose. The HSP60 was lyophilized from 20-40 mM ammonium-bicarbonate solution, after purification, and stored at −20° C. The construct lacks the mitochondrial signal sequence. […] Before use, the lyophilized protein is dissolved at room temperature at 1 mg/ml in 20-40 mM NH4HCO3, resulting in a pH of 7.0. Aliquots are stored at −20° C. or −80° C. The mitochondrial HSP60 is a functional dimer of heptamers (MW(HSP60 monomer)=˜58 kDa), and is involved in multimer protein assembling and aids in transport of unfolded proteins across membranes. For the binding studies, at two occasions separate HSP60 solutions were prepared originating from the same batch of purified protein, lyophilized in separate Eppendorf cups.\nBinding of chaperones to immobilized (misfolded) protein ligands was determined using an enzyme linked immuno sorbent assay (ELISA) approach. […] After 5 washes with wash buffer followed by two washes with PBS, binding of antibodies was assessed. […] Plates were read at 450 nm. […]"}}, "data": [{"molecule": "B1", "values": [{"measurement": "Binding of concentration series of BiP to coated ligand", "setting": "human BiP", "value": "did not bind"}, {"measurement": "Binding of concentration series of HSP60 to coated ligand", "setting": "[1]", "value": "did not bind"}]}]}
